Measured values as given in patent publication US20020081614, “Functional genomics using zinc finger proteins” (Sangamo BioSciences, Inc., published 2002).

Experiments:
[1] = system: M6-111S ZFP-KRAB (pcK-M6-111S, printed pcK-M6-11S) (synthetic construct); test: cell_activity; conditions: cotransfected luciferase reporter; about 40% repression of endogenous VEGF
[2] = system: M6-111S ZFP-VP16 (pcV-M6-111S) (synthetic construct); test: cell_activity; conditions: 293 cells; target printed ATGGGGGTC in Table 1 but ATGGGGGTG in p236 and p241
[3] = system: M6-2009S ZFP-VP16 (pcV-M6-2009S, also written M6-2009A) (synthetic construct); test: cell_activity; conditions: 293 cells; reporter pGLPVFH, table title endogenous VEGF; location -363
[4] = system: M6-1878S ZFP-VP16 (pcV-M6-1878S) (synthetic construct); test: cell_activity; conditions: 293 cells; reporter pGLPVFH, table title endogenous VEGF; location -536
[5] = system: M6-120S ZFP-VP16 (pcV-M6-120S) (synthetic construct); test: cell_activity; conditions: 293 cells; reporter pGLPVFH, table title endogenous VEGF; location -2243
VF471A-VP16 (pcV-VF471A) = target: T1, VF471A-VP16 (pcV-VF471A) (synthetic construct); test: cell_activity; luciferase reporter in 293 cells, vs pcV-RAN
T1 chain: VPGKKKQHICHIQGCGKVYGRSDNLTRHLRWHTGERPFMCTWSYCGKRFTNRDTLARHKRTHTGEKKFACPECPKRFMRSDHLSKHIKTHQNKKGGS
Protocol: All plasmid DNA was prepared using Qiagen plasmid purification kits. The human embryonic kidney 293 cells were seeded into each well of a 6-well plate with a density to reach approximately 70% confluence the next day. Cells were co-transfected with 50 ng effector DNA (ZFP-expression plasmid), 900 ng reporter DNA and 100 ng pCMV-LacZ DNA using either Lipofectamine (GIBCO-BRL, MD) or GenePORTER (Gene Therapy Systems Inc, CA) transfection reagent. The co-expressed β-galactosidase activity was used a control to normalize the luciferase activity. Cell lysates were harvested 40 to 48 hours after transfection. Luciferase assays were performed using the Dual-Light Luciferase and β-galactosidase Reporter Assay System (Tropix, MA).
When the VP16 domain was replaced with a peptide, which has no transcription regulation activity, this zinc finger protein (pcV-VF471A-cat) lost its activity of trans-activating the luciferase gene. […] Therefore, the DNA binding domain (VF471A ZFP) combined with the regulation domain (VP16) in this example were able to turn on the gene at an appropriate target sites.

With “ATGGGGGTG (double strand) [M6-111S site]” the activity [1] was 80 % repression and the activity (fold activation) [2] was 4.1.

“GAAGGGGGC (double strand) [M6-2009S site]” gave an activity (fold activation) [3] of 4.5.

In the case of “GAGTGTGTG (double strand) [M6-1878S site]”, the activity (fold activation) [4] is reported as 4.2.

“GGGGGTGCC (double strand) [M6-120S site]” gave an activity (fold activation) [5] of 13.8.

B1: reporter with three tandem M6-1892S sites (pGLP-VF471x3) (dsDNA)
DNA 1: GGGGTTGAG
DNA 2: CTCAACCCC
With B1 the activity (VF471A-VP16 (pcV-VF471A)) was 8 fold activation.
